Measurements reported in the supplement of paper PMC5998384.

What was measured:
HeLa Kyoto [1] = test: solubility change mitosis vs G1/S (difference of NP-40 vs SDS log2 ratios) (log2 ratio difference); higher = more soluble in mitosis
HeLa Kyoto [2] = test: melting temperature (median over replicates), in situ; higher = more thermally stable
HeLa Kyoto [3] = test: solubility in G1/S (NP-40 vs SDS abundance) (log2 ratio); higher = more soluble; details: cell cycle stage: G1/S
HeLa Kyoto [4] = test: thermal stability score vs G1/S (z-score of summed log2 fold changes over temperatures); higher = more thermally stable than in G1/S
[5] = cell cycle stage: early G1 (4.5 h after nocodazole release)
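Wherever melting temperature (median over replicates), in situ is given: HeLa Kyoto cells synchronized by double thymidine or nocodazole block, proteins quantified by TMT10plex mass spectrometry, three independent biological replicates.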
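Wherever solubility change mitosis vs G1/S (difference of NP-40 vs SDS log2 ratios) is given: synchronized HeLa Kyoto cells (double thymidine block for G1/S, nocodazole release for mitosis), protein amounts in NP-40 versus SDS lysates quantified by mass spectrometry, three biological replicates.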
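Wherever solubility in G1/S (NP-40 vs SDS abundance) is given: HeLa Kyoto cells arrested at G1/S by double thymidine block, proteins quantified by TMT10plex mass spectrometry in mild NP-40 versus SDS extracts, three biological replicates.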
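Wherever thermal stability score vs G1/S (z-score of summed log2 fold changes over temperatures) is given: synchronized HeLa Kyoto cells, proteins quantified by TMT10plex mass spectrometry, three biological replicates, mitosis taken 0.5 h after nocodazole release, G1/S directly after double thymidine block.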

Chain of CREBBP (chain, as listed by the source): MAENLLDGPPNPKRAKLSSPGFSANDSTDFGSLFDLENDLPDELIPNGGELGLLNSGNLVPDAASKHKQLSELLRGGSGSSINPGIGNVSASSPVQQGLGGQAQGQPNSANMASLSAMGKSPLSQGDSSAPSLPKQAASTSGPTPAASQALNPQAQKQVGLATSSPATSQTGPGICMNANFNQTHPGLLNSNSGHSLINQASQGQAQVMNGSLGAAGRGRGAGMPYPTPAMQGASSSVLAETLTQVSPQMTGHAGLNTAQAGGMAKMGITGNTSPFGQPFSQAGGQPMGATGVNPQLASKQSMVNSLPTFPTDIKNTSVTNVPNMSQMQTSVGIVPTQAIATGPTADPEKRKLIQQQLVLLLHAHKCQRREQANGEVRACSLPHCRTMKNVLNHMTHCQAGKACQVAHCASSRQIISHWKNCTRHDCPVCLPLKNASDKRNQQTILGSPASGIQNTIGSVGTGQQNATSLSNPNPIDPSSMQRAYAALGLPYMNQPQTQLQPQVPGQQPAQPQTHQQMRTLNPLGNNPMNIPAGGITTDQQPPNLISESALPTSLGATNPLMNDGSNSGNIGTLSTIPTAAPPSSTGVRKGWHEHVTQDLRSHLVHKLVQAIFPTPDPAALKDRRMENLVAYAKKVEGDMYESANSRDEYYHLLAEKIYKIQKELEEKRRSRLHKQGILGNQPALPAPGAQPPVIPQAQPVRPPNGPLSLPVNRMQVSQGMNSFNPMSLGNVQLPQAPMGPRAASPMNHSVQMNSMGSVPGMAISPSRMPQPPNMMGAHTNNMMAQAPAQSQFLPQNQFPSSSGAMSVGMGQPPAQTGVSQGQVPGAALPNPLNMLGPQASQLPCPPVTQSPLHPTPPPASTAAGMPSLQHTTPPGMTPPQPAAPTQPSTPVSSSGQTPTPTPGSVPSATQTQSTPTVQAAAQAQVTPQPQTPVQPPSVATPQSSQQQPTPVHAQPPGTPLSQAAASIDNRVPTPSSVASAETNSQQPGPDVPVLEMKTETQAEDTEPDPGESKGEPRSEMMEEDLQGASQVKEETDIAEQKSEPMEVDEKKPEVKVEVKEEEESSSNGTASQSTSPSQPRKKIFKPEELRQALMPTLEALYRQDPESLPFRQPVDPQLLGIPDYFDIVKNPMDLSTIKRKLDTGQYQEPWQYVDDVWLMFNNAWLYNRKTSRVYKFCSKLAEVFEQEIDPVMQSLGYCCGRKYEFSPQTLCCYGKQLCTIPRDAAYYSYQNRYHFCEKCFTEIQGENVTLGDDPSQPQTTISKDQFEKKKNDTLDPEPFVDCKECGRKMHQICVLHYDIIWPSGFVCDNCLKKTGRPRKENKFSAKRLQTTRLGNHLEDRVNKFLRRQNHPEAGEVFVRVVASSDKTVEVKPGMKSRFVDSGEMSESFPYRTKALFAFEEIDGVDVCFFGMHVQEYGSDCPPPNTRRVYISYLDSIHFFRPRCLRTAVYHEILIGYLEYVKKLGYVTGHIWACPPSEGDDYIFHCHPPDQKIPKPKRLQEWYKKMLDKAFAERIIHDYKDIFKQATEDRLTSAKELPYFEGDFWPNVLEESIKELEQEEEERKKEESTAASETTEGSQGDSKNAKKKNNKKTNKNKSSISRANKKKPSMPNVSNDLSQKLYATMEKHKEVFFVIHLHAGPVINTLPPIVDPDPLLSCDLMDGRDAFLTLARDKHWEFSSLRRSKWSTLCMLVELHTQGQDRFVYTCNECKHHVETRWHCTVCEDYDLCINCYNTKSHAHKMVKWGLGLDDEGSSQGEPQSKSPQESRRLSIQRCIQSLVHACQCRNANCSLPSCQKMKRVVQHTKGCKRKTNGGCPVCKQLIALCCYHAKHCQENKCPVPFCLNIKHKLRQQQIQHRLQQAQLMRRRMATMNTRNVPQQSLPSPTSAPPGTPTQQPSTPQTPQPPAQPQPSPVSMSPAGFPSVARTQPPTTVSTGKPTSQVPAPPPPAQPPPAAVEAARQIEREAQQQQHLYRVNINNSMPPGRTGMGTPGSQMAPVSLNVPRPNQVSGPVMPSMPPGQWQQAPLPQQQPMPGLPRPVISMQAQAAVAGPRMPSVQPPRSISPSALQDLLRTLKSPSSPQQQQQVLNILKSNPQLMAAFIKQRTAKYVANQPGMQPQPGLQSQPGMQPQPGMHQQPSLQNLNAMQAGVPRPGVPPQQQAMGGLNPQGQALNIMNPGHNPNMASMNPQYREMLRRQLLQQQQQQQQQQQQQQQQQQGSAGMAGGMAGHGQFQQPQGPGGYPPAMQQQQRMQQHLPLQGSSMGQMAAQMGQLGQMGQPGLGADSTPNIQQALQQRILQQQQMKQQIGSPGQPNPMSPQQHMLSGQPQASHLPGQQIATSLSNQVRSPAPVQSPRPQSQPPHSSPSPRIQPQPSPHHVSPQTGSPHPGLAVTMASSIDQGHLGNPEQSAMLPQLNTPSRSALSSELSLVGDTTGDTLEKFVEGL

Substance: MGDTVVEPAPLKPTSEPTSGPPGNNGGSLLSVITEGVGELSVIDPEVAQKACQEVLEKVKLLHGGVAVSSRGTPLELVNGDGVDSEIRCLDDPPAQIREEEDEMGAAVASGTAKGARRRRQNNSAKQSWLLRLFESKLFDISMAISYLYNSKEPGVQAYIGNRLFCFRNEDVDFYLPQLLNMYIHMDEDVGDAIKPYIVHRCRQSINFSLQCALLLGAYSSDMHISTQRHSRGTKLRKLILSDELKPAHRKRELPSLSPAPDTGLSPSKRTHQRSKSDATASISLSSNLKRTASNPKVENEDEELSSSTESIDNSFSSPVRLAPEREFIKSLMAIGKRLATLPTKEQKTQRLISELSLLNHKLPARVWLPTAGFDHHVVRVPHTQAVVLNSKDKAPYLIYVEVLECENFDTTSVPARIPENRIRSTRSVENLPECGITHEQRAGSFSTVPNYDNDDEAWSVDDIGELQVELPEVHTNSCDNISQFSVDSITSQESKEPVFIAAGDIRRRLSEQLAHTPTAFKRDPEDPSAVALKEPWQEKVRRIREGSPYGHLPNWRLLSVIVKCGDDLRQELLAFQVLKQLQSIWEQERVPLWIKPYKILVISADSGMIEPVVNAVSIHQVKKQSQLSLLDYFLQEHGSYTTEAFLSAQRNFVQSCAGYCLVCYLLQVKDRHNGNILLDAEGHIIHIDFGFILSSSPRNLGFETSAFKLTTEFVDVMGGLDGDMFNYYKMLMLQGLIAARKHMDKVVQIVEIMQQGSQLPCFHGSSTIRNLKERFHMSMTEEQLQLLVEQMVDGSMRSITTKLYDGFQYLTNGIM [PI4KB]
- solubility change mitosis (log2) (HeLa Kyoto [1]): -0.221
- melting temperature (HeLa Kyoto [2]; cell cycle stage: G1/S): 52.3 °C
- melting temperature (HeLa Kyoto [2]; cell cycle stage: mitosis): 52.2 °C
- solubility in G1/S (log2) (HeLa Kyoto [3]): 0.00648
- thermal stability score (HeLa Kyoto [4]; [5]): -0.522
- thermal stability score (HeLa Kyoto [4]; cell cycle stage: mitosis): -0.618

Substance: MSDLRITEAFLYMDYLCFRALCCKGPPPARPEYDLVCIGLTGSGKTSLLSKLCSESPDNVVSTTGFSIKAVPFQNAILNVKELGGADNIRKYWSRYYQGSQGVIFVLDSASSEDDLEAARNELHSALQHPQLCTLPFLILANHQDKPAARSVQEIKKYFELEPLARGKRWILQPCSLDDMDALKDSFSQLINLLEEKDHEAVRM [ARL15]
- solubility change mitosis (log2) (HeLa Kyoto [1]): -0.114
- melting temperature (HeLa Kyoto [2]; cell cycle stage: mitosis): 53.2 °C
- solubility in G1/S (log2) (HeLa Kyoto [3]): 0.118
- thermal stability score (HeLa Kyoto [4]; [5]): -0.792
- thermal stability score (HeLa Kyoto [4]; cell cycle stage: mitosis): 0.438

Substance: MDVENEQILNVNPADPDNLSDSLFSGDEENAGTEEIKNEINGNWISASSINEARINAKAKRRLRKNSSRDSGRGDSVSDSGSDALRSGLTVPTSPKGRLLDRRSRSGKGRGLPKKGGAGGKGVWGTPGQVYDVEEVDVKDPNYDDDQENCVYETVVLPLDERAFEKTLTPIIQEYFEHGDTNEVAEMLRDLNLGEMKSGVPVLAVSLALEGKASHREMTSKLLSDLCGTVMSTTDVEKSFDKLLKDLPELALDTPRAPQLVGQFIARAVGDGILCNTYIDSYKGTVDCVQARAALDKATVLLSMSKGGKRKDSVWGSGGGQQSVNHLVKEIDMLLKEYLLSGDISEAEHCLKELEVPHFHHELVYEAIIMVLESTGESTFKMILDLLKSLWKSSTITVDQMKRGYERIYNEIPDINLDVPHSYSVLERFVEECFQAGIISKQLRDLCPSRGRKRFVSEGDGGRLKPESY [PDCD4]
- solubility change mitosis (log2) (HeLa Kyoto [1]): -0.495
- melting temperature (HeLa Kyoto [2]; cell cycle stage: G1/S): 48.8 °C
- solubility in G1/S (log2) (HeLa Kyoto [3]): 0.349
- thermal stability score (HeLa Kyoto [4]; [5]): 1.91
- thermal stability score (HeLa Kyoto [4]; cell cycle stage: mitosis): 4.21

Substance: COL4A2
- solubility change mitosis (log2) (HeLa Kyoto [1]): 0.0703
- melting temperature (HeLa Kyoto [2]; cell cycle stage: G1/S): 53.4 °C
- melting temperature (HeLa Kyoto [2]; cell cycle stage: mitosis): 55.3 °C
- solubility in G1/S (log2) (HeLa Kyoto [3]): 0.038
- thermal stability score (HeLa Kyoto [4]; [5]): 0.58
- thermal stability score (HeLa Kyoto [4]; cell cycle stage: mitosis): -0.541

Substance: CREBBP
- solubility change mitosis (log2) (HeLa Kyoto [1]): 0.0153
- melting temperature (HeLa Kyoto [2]; cell cycle stage: G1/S): 52 °C
- melting temperature (HeLa Kyoto [2]; cell cycle stage: mitosis): 53.2 °C
- solubility in G1/S (log2) (HeLa Kyoto [3]): -0.265
- thermal stability score (HeLa Kyoto [4]; [5]): -0.935
- thermal stability score (HeLa Kyoto [4]; cell cycle stage: mitosis): -0.841

Substance: MSATVVDAVNAAPLSGSKEMSLEEPKKMTREDWRKKKELEEQRKLGNAPAEVDEEGKDINPHIPQYISSVPWYIDPSKRPTLKHQRPQPEKQKQFSSSGEWYKRGVKENSIITKYRKGACENCGAMTHKKKDCFERPRRVGAKFTGTNIAPDEHVQPQLMFDYDGKRDRWNGYNPEEHMKIVEEYAKVDLAKRTLKAQKLQEELASGKLVEQANSPKHQWGEEEPNSQMEKDHNSEDEDEDKYADDIDMPGQNFDSKRRITVRNLRIREDIAKYLRNLDPNSAYYDPKTRAMRENPYANAGKNPDEVSYAGDNFVRYTGDTISMAQTQLFAWEAYDKGSEVHLQADPTKLELLYKSFKVKKEDFKEQQKESILEKYGGQEHLDAPPAELLLAQTEDYVEYSRHGTVIKGQERAVACSKYEEDVKIHNHTHIWGSYWKEGRWGYKCCHSFFKYSYCTGEAGKEIVNSEECIINEITGEESVKKPQTLMELHQEKLKEEKKKKKKKKKKHRKSSSDSDDEEKKHEKLKKALNAEEARLLHVKETMQIDERKRPYNSMYETREPTEEEMEAYRMKRQRPDDPMASFLGQ [SLU7]
- solubility change mitosis (log2) (HeLa Kyoto [1]): 0.256
- melting temperature (HeLa Kyoto [2]; cell cycle stage: G1/S): 46.9 °C
- melting temperature (HeLa Kyoto [2]; cell cycle stage: mitosis): 49.9 °C
- solubility in G1/S (log2) (HeLa Kyoto [3]): -0.523
- thermal stability score (HeLa Kyoto [4]; [5]): 0.191
- thermal stability score (HeLa Kyoto [4]; cell cycle stage: mitosis): 0.493

Substance: MGNGGRSGLQQGKGNVDGVAATPTAASASCQYRCIECNQEAKELYRDYNHGVLKITICKSCQKPVDKYIEYDPVIILINAILCKAQAYRHILFNTQINIHGKLCIFCLLCEAYLRWWQLQDSNQNTAPDDLIRYAKEWDFYRMFAIAALEQTAYFIGIFTFLWVERPMTAKKKPNFILLLKALLLSSYGKLLLIPAVIWEHDYTSVCLKLIKVFVLTSNFQAIRVTLNINRKLSFLAVLSGLLLESIMVYFFQSMEWDVGSDYAIFKSQDF [ARV1]
- solubility change mitosis (log2) (HeLa Kyoto [1]): -0.0477
- melting temperature (HeLa Kyoto [2]; cell cycle stage: mitosis): 49.2 °C
- solubility in G1/S (log2) (HeLa Kyoto [3]): -0.481
- thermal stability score (HeLa Kyoto [4]; [5]): -0.687
- thermal stability score (HeLa Kyoto [4]; cell cycle stage: mitosis): -0.97

Substance: MDVAESPERDPHSPEDEEQPQGLSDDDILRDSGSDQDLDGAGVRASDLEDEESAARGPSQEEEDNHSDEEDRASEPKSQDQDSEVNELSRGPTSSPCEEEGDEGEEDRTSDLRDEASSVTRELDEHELDYDEEVPEEPAPAVQEDEAEKAGAEDDEEKGEGTPREEGKAGVQSVGEKESLEAAKEKKKEDDDGEIDDGEIDDDDLEEGEVKDPSDRKVRPRPTCRFFMKGNCTWGMNCRFIHPGVNDKGNYSLITKADPFPPNGAPPLGPHPLMPANPWGGPVVDEILPPPPPEPPTESAWERGLRHAKEVLKKATIRKEQEPDFEEKRFTVTIGEDEREFDKENEVFRDWNSRIPRDVRDTVLEPYADPYYDYEIERFWRGGQYENFRVQYTETEPYHNYRERERERERENRQRERERERERDRERERRQRERERERERERDKERQRRKEEWERERAKRDEKDRQHRDRDREKEREKEKGKPKPRSPQPPSRQAEPPKKEAATTGPQVKRADEWKDPWRRSKSPKKKLGVSVSPSRARRRRKTSASSASASNSSRSSSRSSSYSGSGSSRSRSRSSSYSSYSSRSSRHSSFSGSRSRSRSFSSSPSPSPTPSPHRPSIRTKGEPAPPPGKAGEKSVKKPAPPPAPPQATKTTAPVPEPTKPGDPREARRKERPARTPPRRRTLSGSGSGSGSSYSGSSSRSRSLSVSSVSSVSSATSSSSSAHSVDSEDMYADLASPVSSASSRSPAPAQTRKEKGKSKKEDGVKEEKRKRDSSTQPPKSAKPPAGGKSSQQPSTPQQAPPGQPQQGTFVAHKEIKLTLLNKAADKGSRKRYEPSDKDRQSPPPAKRPNTSPDRGSRDRKSGGRLGSPKPERQRGQNSKAPAAPADRKRQLSPQSKSSSKVTSVPGKASDPGAASTKSGKASTLSRREELLKQLKAVEDAIARKRAKIPGKA [ZC3H18]
- solubility change mitosis (log2) (HeLa Kyoto [1]): 0.144
- melting temperature (HeLa Kyoto [2]; cell cycle stage: G1/S): 48.7 °C
- melting temperature (HeLa Kyoto [2]; cell cycle stage: mitosis): 51.3 °C
- solubility in G1/S (log2) (HeLa Kyoto [3]): -0.653
- thermal stability score (HeLa Kyoto [4]; [5]): 7.23
- thermal stability score (HeLa Kyoto [4]; cell cycle stage: mitosis): 11.9

Substance: MTSPAAAQSREIDCLSPEAQKLAEARLAAKRAARAEAREIRMKELERQQKEEDSERYSRRSRRNTSASDEDERMSVGSRGSLRVEERPEKDFTEKGSRNMPGLSAATLASLGGTSSRRGSGDTSISIDTEASIREIKELNELKDQIQDVEGKYMQGLKEMKDSLAEVEEKYKKAMVSNAQLDNEKTNFMYQVDTLKDMLLELEEQLAESRRQYEEKNKEFEREKHAHSILQFQFAEVKEALKQREEMLEKHGIILNSEIATNGETSDTLNNVGYQGPTKMTKEELNALKSTGDGTLGRASEVEVKNEIVANVGKREILHNTEKEQHTEDTVKDCVDIEVFPAGENTEDQKSSEDTAPFLGTLAGATYEEQVQSQILESSSLPENTVQVESNEVMGAPDDRTRTPLEPSNCWSDLDGGNHTENVGEAAVTQVEEQAGTVASCPLGHSDDTVYHDDKCMVEVPQELETSTGHSLEKEFTNQEAAEPKEVPAHSTEVGRDHNEEEGEETGLRDEKPIKTEVPGSPAGTEGNCQEATGPSTVDTQNEPLDMKEPDEEKSDQQGEALDSSQKKTKNKKKKNKKKKSPVPVETLKDVKKELTYQNTDLSEIKEEEQVKSTDRKSAVEAQNEVTENPKQKIAAESSENVDCPENPKIKLDGKLDQEGDDVQTAAEEVLADGDTLDFEDDTVQSSGPRAGGEELDEGVAKDNAKIDGATQSSPAEPKSEDADRCTLPEHESPSQDISDACEAESTERCEMSEHPSQTVRKALDSNSLENDDLSAPGREPGHFNPESREDTRGGNEKGKSKEDCTMS [LRRFIP1]
- solubility change mitosis (log2) (HeLa Kyoto [1]): 0.0557
- melting temperature (HeLa Kyoto [2]; cell cycle stage: G1/S): 58.7 °C
- solubility in G1/S (log2) (HeLa Kyoto [3]): 0.265
- thermal stability score (HeLa Kyoto [4]; [5]): -2.05
- thermal stability score (HeLa Kyoto [4]; cell cycle stage: mitosis): -2.56

Substance: NFIB
- solubility change mitosis (log2) (HeLa Kyoto [1]): -0.032
- melting temperature (HeLa Kyoto [2]; cell cycle stage: G1/S): 54.2 °C
- melting temperature (HeLa Kyoto [2]; cell cycle stage: mitosis): 53.9 °C
- solubility in G1/S (log2) (HeLa Kyoto [3]): 0.238
- thermal stability score (HeLa Kyoto [4]; [5]): 1.24
- thermal stability score (HeLa Kyoto [4]; cell cycle stage: mitosis): 1.07
